# According to patent publication US12410253B2, “Compositions comprising anti-NRP2 antibodies” (aTyr Pharma, Inc., priority 2019, dated 2025):
# T1: NRP2/KDR(VEGFR2) (Homo sapiens, UniProt O60462)
# T1 construct: The complete extracellular domain and transmembrane helices of NRP2a (version 2), NRP2b (version 5); expressed in transfected cells; host or cells: Expi293, transient co-transfection
# T1 sequence (O60462 23-859 isoform O60462-3 limits assumed): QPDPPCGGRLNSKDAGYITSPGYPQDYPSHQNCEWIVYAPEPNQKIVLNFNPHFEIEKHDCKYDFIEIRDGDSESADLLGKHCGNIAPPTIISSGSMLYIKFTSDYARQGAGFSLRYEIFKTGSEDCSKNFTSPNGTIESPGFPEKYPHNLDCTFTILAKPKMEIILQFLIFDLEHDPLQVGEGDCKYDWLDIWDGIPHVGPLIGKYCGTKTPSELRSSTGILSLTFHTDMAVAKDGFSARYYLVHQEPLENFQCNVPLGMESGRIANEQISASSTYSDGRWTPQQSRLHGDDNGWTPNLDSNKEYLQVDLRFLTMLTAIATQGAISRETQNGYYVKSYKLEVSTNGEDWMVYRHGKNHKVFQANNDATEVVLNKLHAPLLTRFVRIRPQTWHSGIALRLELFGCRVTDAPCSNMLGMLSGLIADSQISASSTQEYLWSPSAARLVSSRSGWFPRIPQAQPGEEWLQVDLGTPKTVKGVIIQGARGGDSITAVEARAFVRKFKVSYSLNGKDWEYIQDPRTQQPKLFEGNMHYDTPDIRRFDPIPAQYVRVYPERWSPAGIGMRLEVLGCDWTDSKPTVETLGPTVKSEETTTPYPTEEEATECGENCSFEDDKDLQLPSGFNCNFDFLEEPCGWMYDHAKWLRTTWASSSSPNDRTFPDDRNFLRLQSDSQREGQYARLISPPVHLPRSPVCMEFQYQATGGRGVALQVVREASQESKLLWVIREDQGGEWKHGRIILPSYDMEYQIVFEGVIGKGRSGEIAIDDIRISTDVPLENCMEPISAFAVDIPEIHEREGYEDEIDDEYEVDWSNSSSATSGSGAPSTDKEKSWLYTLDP
# B1: aNRP2-11v7: humanized, affinity matured anti-NRP2 antibody, target domain b2; VH SEQ ID NO: 51, VL SEQ ID NO: 52 (antibody, V domains shown)
# VH: QVQLVQSGAEVKKPGASVKVSCKASGYTFTSFGISWVRQAPGQGLEWIGEIYPRSGNTYYNENFKGRATMTADKSTSTAYMELRSLRSDDTAVYYCARSSGYYGSTPFPYWGQGTLVTVSS
# VL: DIQMTQSPSSLSASVGDRVTITCRASQDISNYLNWYQQKPGKAVKLLIYYTSRLHSGVPSRFSGSGSGTDYTFTISSLQPEDIATYYCQQGNTLPWTFGGGTKVEIK
# modifications: Variable heavy chain region; Light chain variable region
# Target: T1, NRP2/KDR(VEGFR2)
# Assay: Split-luciferase receptor dimerization assay, NRP2/KDR with VEGF-A
# Assay type: cell-based
# Details: antibody 100 nM; ligand induced dimerization
# Procedure: To further extend the assessment of the biological activity of the anti-NRP2 antibodies, their activity was assessed in a receptor dimerization assay. In brief, vectors encoding a split luciferase pBiT1.1 and pBiT2.1 were obtained from Promega corporation (Madison, Wisconsin). The complete extracellular domain and transmembrane helices of NRP2a (version 2), NRP2b (version 5) (See table N1), FLT4 (VEGFR3), KDR (VEGFR2), and plexin A1 (PLXNA1) were cloned into the vectors and screened for optimal orientation, receptor density, and ligand induced dimerization, following established methods. […] Cells were counted, and 100,000 live cells were plated in a well of a white luminometer plate in Live Cell Imaging Solution (Fisher). Nano-Glo assay substrate (Promega) was added, and the plate was read on a Glomax 96 luminometer at room temperature to establish baseline luminescence. Antibodies were added to the well at 100 nM and the plate was again read to establish a new baseline and monitor the effects of the antibodies on spontaneous receptor dimerization. Depending on the receptor pair, typically 200 nM SEMA3F-p95 (aTyr Pharma), 2 nM VEGF-C(R&D Systems, Minnesota), or 2 nM VEGF165 (R&D Systems, Minnesota) were then added and the plate was again read to measure dimerization of receptors. […]
molecule,measurement,value
B1,effect on NRP2-KDR dimerization (in words),increased the ligand induced dimerization signal
